From patent publication US8492099B2, “Method of measuring enzymatic activity of adsorbed allergenic enzyme” (Alk-Abello A/S, priority 2005, dated 2013)

Assays:
papain = molecular target: T1, papain (Carica papaya, UniProt P00784); conditions: 12.5 nM E-64, papain 5 nM
T1 sequence (P00784 134-345): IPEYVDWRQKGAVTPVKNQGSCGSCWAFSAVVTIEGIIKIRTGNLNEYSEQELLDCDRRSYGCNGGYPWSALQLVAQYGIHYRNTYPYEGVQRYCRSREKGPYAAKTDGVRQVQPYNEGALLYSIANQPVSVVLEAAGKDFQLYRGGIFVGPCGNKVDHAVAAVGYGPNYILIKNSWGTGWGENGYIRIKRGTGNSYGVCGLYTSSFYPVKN
Description: Stock solutions of 1M DTT and 100 mM EDTA were made in the beginning of the experimental period, frozen at −20° C., and used through the entire project period. Each day a new buffer was made containing the reducing agent DTT and EDTA from the stock solutions. […] DTT is continuously oxidized by the oxygen in the air and therefore a new buffer must be made each day. […] The microtiter plate was opaque to avoid cross contamination of emitted fluorescence between wells. The substrate was diluted to the final concentration in the newly made buffer containing DTT and EDTA and transferred to the microtiter plate. The enzyme was diluted in the same buffer and incubated 10 min in the case of papain and 20 min in the case of Der p 1, for their activation. Mixing, transferring and incubation were carried out at room temperature. After incubation the enzyme solution was transferred to the microtiter plate and the measurements were initiated. The measurements were carried out for 10 min with a total of 36 measurements for each well and automatic mixture between each measurement.
EDTA was added at 1 mM, and DTT at 5 mM final concentrations.

[1] = Quenching of AMC fluorescence by aluminium hydroxide; assay type: physicochemical; conditions: 1 μM AMC, during the time of the assay
Source text: This AMC concentration is equivalent to the enzymatic assay AMC concentration generated by papain and Der p 1.

[2] = Der p 1 enzyme activity fluorescence assay (activity measurements and Michaelis-Menten kinetic), Der p 1/aluminium hydroxide adsorption experiment; assay type: biochemical
Description: After measuring the enzymatic activity the maximal slope of the progress curve was estimated using the software SoftMax® PRO Life Sciences Edition, Molecular Devices, 2001. After estimating the initial velocity of the experiments they were transferred to Prism and analyzed.
After adsorption 500 μL was taken out for further analysis and the rest of the mixture was centrifuged for 10 min at 4000 rpm. An elution step was performed for 1 h at 4° C. where the pellet of Mix2 was resuspended in phosphate buffer. […] Con1 was analyzed in the beginning of the experiment and Con2 was analyzed at the end of the 2 hours experiment.
Different types of enzymatic assays were performed: (i) activity measurements using a fixed substrate concentration to evaluate enzyme activity, and (ii) Michaelis-Menten kinetic to estimate the kinetic parameters Vmax and KM.
All activity assays were conducted with Tris buffer, pH 7.0, 5 mM DTT, 1 mM EDTA and Boc-QAR-AMC as substrate.

[3] = Adsorption of Der p 1 to aluminium hydroxide: protein concentration by A280; assay type: physicochemical
Source text: The aromatic amino acids tryptophan, tyrosine and phenylalanine absorb ultraviolet light. However only tryptophan and tyrosine absorb at 280 nm and tryptophan absorbs 5 times more light than tyrosine. This is due to the […] transition in the indole ring of tryptophan where phenylalanine and tyrosine contains a phenyl group. The absorbance of a protein is linearly correlated with the amount of tryptophan and tyrosine in the protein, the length of the light path and the concentration of protein. This relationship is named Lambert-Beer's law and is given by: A=ε·l·c where A is the absorbance, ε is the molar absorption coefficient for the protein (determined by the amount of tryptophan and tyrosine in the protein) l is the length of the light path and c is the protein concentration. Thus from an absorbance measurement the concentration of protein can be estimated if the molar absorptivity coefficient is known. • Apparatuses • Lambda 800 UV/VIS Spectrometer, PerkinElmer™ • 100-QS, quartz cuvette, path length 1 cm, Hellma® • Materials and Reagents • 50 mM Bis-Tris pH 6.5, Sigma • 50 mM Tris pH 7.0, Sigma • 50 mM phosphate buffer pH 7.0, Merck • 2% Helmanex solution, Hellma Experimental Procedure
The spectrophotometer was turned on 30 min prior to use for a warm up period. The wavelength of the spectrophotometer was set to 280 nm and the instrument was zeroed to a blank sample containing the matrix of the true sample. The quartz cuvette was washed first with a 2% Helmanex solution and then 4 times with MQ water and afterwards dried with high pressure air. […] After cleaning the cuvette 20 μL of sample was transferred to the cuvette and the absorbance was measured.
(§1) After adsorption 500 μL was taken out for further analysis and the rest of the mixture was centrifuged for 10 min at 4000 rpm. […] Con1 was analyzed in the beginning of the experiment and Con2 was analyzed at the end of the 2 hours experiment.
The absorbance measurements were converted to protein concentration by the Lambert-Beer's law using a molar absorption coefficient for Der p 1 of […] as shown in table 8a. […]

[4] = Adsorption of Der p 1 to aluminium hydroxide: protein concentration by rocket immune electrophoresis (RIE); assay type: physicochemical
Source text: This method was used to quantify a given protein by measuring the propagation of protein-antibody complex after electrophoresis in an agarose gel containing antibodies directed against the protein under investigation.
This method is based on the mobility of protein-antibody complex in an agarose gel during electrophoresis. The antibodies are incorporated into the agarose gel during polymerization and the sample protein is then applied to the wells. The proteins move according to their electrophoretic mobility encountering the antibodies in the gel and forming complexes. These complexes grow in size as the antigen encounters more and more antibodies thereby limiting the migration through the pores of the gel until no further migration occurs. The complexes are visualized by staining the gel. The area delimited by the complexes is proportional to the amount of protein applied to the well. The quantification is performed relative to an internal standard preparation applied in a dilution series on the same gel.
A glass plate was placed on a leveled surface and cleaned with ethanol. 11 mL agarose was pipetted into a test tube in a 56° C. water bath, 15 μL antibody was added, and the solution was mixed gently by inversion. The agarose was poured onto the glass plate carefully avoiding formation of air bubbles. After gelation a series of wells were punched 1.5 cm from the lower edge of the plate. The plate was placed on the cooled surface of the electrophoresis apparatus. Connecting bridges of 5 layers of filter paper were established and the voltage across the gel adjusted to 2V/cm. 10 μL of sample was applied to the wells. […]
as §1
Another method applied to quantify protein content was RIE. The samples Con1, Con2, Sup, and Elu were evaluated together with three Der p 1 standards (125 ng, 250 ng, and 500 ng). […]

[5] = tested on: IgE from sera of HDM allergic patients; experiment: IgE inhibition assay (ADVIA centaur); assay type: binding, human
Description: This assay evaluates the capacity that an allergen has to bind IgE from sera of patients allergic to that allergen source.
IgE inhibition experiments were performed on an ADVIA centaur instrument. Serial dilutions (performed with the TECAN (P-05-07F294)) of the inhibitor (Antigen in solution or antigen gel adjuvant vaccine) were mixed with a fixed amount of biotinylated antigen and further incubated with a solid phase absorbed IgE. The amount of biotinylated allergen bound to the solid phase was estimated as the light emitted after incubation with streptavidin labelled with acridinium ester. The raw data was processed in Excel and transferred to GraphPad Prism v. 4.0 for the final analysis (curve fitting, plotting and statistical comparisons). The data was fitted to a four parameter logistic function:
After the adsorption the solution was centrifuged for 5 minutes at 13,000 rpm. […] A Der p extract sample was prepared for incubation with pooled sera IgE.

[6] = Adsorbed: Der p 1 adsorbed to aluminium hydroxide (mix 2)
[7] = Control: Der p 1 in the absence of aluminium hydroxide
[8] = Eluted: Der p 1 eluted from aluminium hydroxide with phosphate buffer

## CC(C)C[C@H](NC(=O)[C@H]1O[C@@H]1C(=O)O)C(=O)NCCCCN=C(N)N (relative stereo) [E-64, L-trans-epoxysuccinyl-L-leucylamido (4-guanidino) butane]
papain
  Inhibition of papain enzyme activity: does not completely inhibit

## Cc1cc(=O)oc2cc(N)ccc12 [AMC]
[1]
  Quenching of fluorescence by aluminium hydroxide: no quenching occurred

B1: Der p 1: major house dust mite allergen, family C1 cysteine protease, purified from D. pteronyssinus extract (protein, UniProt P08176 99-320, looked up)
Peptidase 1: TNACSINGNAPAEIDLRQMRTVTPIRMQGGCGSCWAFSGVAATESAYLAYRNQSLDLAEQELVDCASQHGCHGDTIPRGIEYIQHNGVVQESYYRYVAREQSCRRPNAQRFGISNYCQIYPPNVNKIREALAQTHSAIAVIIGIKDLDAFRHYDGRTIIQRDNGYQPNYHAVNIVGYSNAQGVDYWIVRNSWDTNWGDNGYGYFAANIDLMMIEEYPYVVIL
[2]
  Vmax in Mix2 relative to Vmax in Mix1: 62%
  Vmax in Sup relative to Vmax in Mix1: 30%
[2]; [6]
  Km: 56 µM
  Vmax: 0.15 ng/mL · s
  kcat (Vmax/protein concentration, A280): 0.022 s⁻¹
  kcat (Vmax/protein concentration, RIE): 0.019 s⁻¹
[2]; [7]
  Vmax: 0.25 ng/mL · s
  kcat (Vmax/protein concentration, A280): 0.024 s⁻¹
  kcat (Vmax/protein concentration, RIE): 0.018 s⁻¹
[2]; Control: Der p 1 in the absence of aluminium hydroxide, Boc-QAR-AMC, pH 7.0
  Km: 47 µM
[2]; [8]
  Km: 51 µM
  Vmax: 0.11 ng/mL · s
  kcat (Vmax/protein concentration, A280): 0.025 s⁻¹
  kcat (Vmax/protein concentration, RIE): 0.014 s⁻¹
[2]; Newman Keuls multiple comparison test p>0.05
  Difference between Vmax of Con1 and Mix1: no significant difference
[2]; Vmax
  Activity in Mix2 found in Elu: 68%
[2]; activity measurements
  Activity of Der p 1 adsorbed to aluminium hydroxide: 66%
  Adsorbed activity desorbed after elution from Mix2 with phosphate buffer: 67%
[2]; activity measurements, 100 μM Boc-QAR-AMC
  Activity of non adsorbed Der p 1 in Sup relative to activity in Mix1: 33%
[2]; conclusion
  Part of the Der p 1 molecules adsorbed to the aluminium hydroxide: 60-70%
[2]; end vs beginning of 2 hours experiment, absence of aluminium hydroxide, t-test p-value=0.0024
  Vmax of Con2 lower than Vmax in Con1: 14%
[2]; one-way ANOVA p-value=0.62
  Difference between KM means of the samples: no significant difference
[2]; one-way ANOVA p-value=0.76, 2 hours experiment
  Difference in activity between Con1, Con2 and Mix1: no significant difference
[3]
  Adsorbed protein eluted from aluminium hydroxide using phosphate buffer: 56%
  Protein content in Con1 found in Sup: 32%
[3]; 100 μg/mL Der p 1, 1.14 mg/mL aluminium hydroxide, 1 h at 4° C.
  Adsorption degree: approximately 70%
[4]
  Adsorbed protein eluted from aluminium hydroxide using phosphate buffer: 98%
  Adsorption degree: approximately 56%
  Protein content in Con1 found in Sup: 44%
[5]; Der p 1 without aluminium hydroxide (Con1) vs eluted from aluminium hydroxide (Elu)
  Inhibition of IgE binding, bottom levels of Con1 and Elu: complete inhibition is possible
[5]; one sample t-test p=0.83
  Hill slopes of Con1 and Elu: not significantly different
